This is an account of results in publication PMC8155463.

This assay deals with ZF-AS, fusion protein containing ZF5.3 and human argininosuccinate synthetase (human). Kind of assay: SEC.

As usually defined, the stoichiometry N is a count of units in the complex or per binding partner. With “ZF-AS, fusion protein containing ZF5.3 and human argininosuccinate synthetase (enzyme)”, the stoichiometry N turned out to be 4.
